In publication PMC9814621, “Nanoscopic investigation of C9orf72 poly-GA oligomers on nuclear membrane disruption by a photoinducible platform” (Communications Chemistry, 2021):
Ends that are not written are not given here.

B1: GA DPRs fragment photoreleased from ADP-1 [cysteine-(glycine-alanine)12] (peptide)
peptide: CGAGAGAGAGAGAGAGAGAGAGAGA
notes: N-terminal cysteine followed by 12 glycine-alanine repeats; poly-GA dipeptide repeat translated from the G4C2 repeat expansion of C9orf72 (not part of the C9orf72 protein itself); also called (GA)12; ADP-1-derived GA DPRs; source: synthetic peptide (Fmoc chemistry, HPLC purified), released from ADP-1 by 365-nm light; also released inside SH-SY5Y cells treated with ADP-1
B2: Alexa Fluor 488-labelled GA DPRs fragment photoreleased from ADP-2 [Alexa Fluor 488-cysteine-(glycine-alanine)12] (peptide)
peptide: C(Alexa Fluor 488 C5 maleimide)GAGAGAGAGAGAGAGAGAGAGAGA
notes: N-terminal cysteine (labelled) followed by 12 glycine-alanine repeats; poly-GA dipeptide repeat of the C9orf72 repeat expansion; also called AF-488-labeled GA DPRs; ADP-2-derived GA DPRs; source: also released inside SH-SY5Y cells treated with ADP-2

Experiments:
[1] = molecular target: the molecule itself; assay: transmission electron microscopy; time course of the probe solution with or without irradiation (ADP-1 50 uM; 365 nm, 32 mW/cm^2, 1 min)
[2] = molecular target: the molecule itself; assay: fluorescence lifetime imaging microscopy (self-quenching); SH-SY5Y cells treated with 1 uM ADP-2 and photoinitiated; fixed 2, 12 and 24 h after UV

| Protein | binding result [1] | binding result [2] |
| --- | --- | --- |
| B1 | binds |  |
| B2 |  | binds |
